Laboratory results taken from patent US20240092897A1 (SHANGHAI JMT BIO TECHNOLOGY, published 2024).

T1: Human Siglec-15, His Tag (human Siglec-15 full-length extracellular domain linked with His tag) (human, UniProt Q6ZMC9 20-263)
T1 construct: Bought from ACROBiosystems; also called Siglec-15 protein; SG5-H52H3
T1 sequence: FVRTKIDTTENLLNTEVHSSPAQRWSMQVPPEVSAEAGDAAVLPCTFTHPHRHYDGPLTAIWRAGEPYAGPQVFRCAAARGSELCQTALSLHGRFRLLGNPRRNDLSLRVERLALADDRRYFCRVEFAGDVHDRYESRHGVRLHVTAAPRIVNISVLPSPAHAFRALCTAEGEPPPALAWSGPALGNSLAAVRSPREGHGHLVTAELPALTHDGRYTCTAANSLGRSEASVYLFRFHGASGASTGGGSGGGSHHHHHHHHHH

T2: Cynomolgus Monkey Siglec-15 full-length extracellular domain linked with His tag (Cynomolgus Monkey)
T2 construct: Bought from ACROBiosystems; also called SG5-052H6
T2 chain: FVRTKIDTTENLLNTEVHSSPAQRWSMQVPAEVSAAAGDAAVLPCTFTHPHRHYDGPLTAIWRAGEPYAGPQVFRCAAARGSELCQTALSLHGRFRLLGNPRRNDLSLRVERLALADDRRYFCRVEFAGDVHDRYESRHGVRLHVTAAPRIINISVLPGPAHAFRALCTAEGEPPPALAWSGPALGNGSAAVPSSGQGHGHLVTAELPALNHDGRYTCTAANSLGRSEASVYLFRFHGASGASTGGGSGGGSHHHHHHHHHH

T3: Human Siglec-15 overexpressed on HEK293T cells (HEK293T-hu-S15) (human, UniProt Q6ZMC9 20-328)
T3 construct: whole, on cells; also called HEK293T-hu-S15 cell line
T3 sequence (looked up): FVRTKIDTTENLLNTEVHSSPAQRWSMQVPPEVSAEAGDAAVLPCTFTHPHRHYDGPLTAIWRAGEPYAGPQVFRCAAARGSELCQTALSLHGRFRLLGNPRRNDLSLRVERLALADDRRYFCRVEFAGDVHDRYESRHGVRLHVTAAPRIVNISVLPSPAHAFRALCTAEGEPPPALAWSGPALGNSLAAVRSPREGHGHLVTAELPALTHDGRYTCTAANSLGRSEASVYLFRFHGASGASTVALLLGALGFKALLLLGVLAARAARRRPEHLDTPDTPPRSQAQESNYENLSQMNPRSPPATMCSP

T4: Mouse Siglec-15 full-length extracellular domain linked with His tag (mouse)
T4 construct: Bought from ACROBiosystems; also called SG5-M52H7
T4 chain: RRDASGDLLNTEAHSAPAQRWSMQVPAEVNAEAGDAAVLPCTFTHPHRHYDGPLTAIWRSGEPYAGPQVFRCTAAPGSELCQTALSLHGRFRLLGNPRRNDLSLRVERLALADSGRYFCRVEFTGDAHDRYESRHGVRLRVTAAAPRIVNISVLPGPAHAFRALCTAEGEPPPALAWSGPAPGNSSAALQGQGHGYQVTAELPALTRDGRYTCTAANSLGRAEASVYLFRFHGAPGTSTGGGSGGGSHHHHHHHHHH

B1: 21F6C6 chimeric antibody (antibody, human IgG1, V domains shown)
VH: EVMLVESGGGLVKPGGSLKLSCAASGFTFSSYAMSWVRQSPEKRLEWVATISSGGSLIYYPDSVTGRFTISRDNAKSTLYLQMSSLRSEDTAMYYCVRHGYYYGDSTLYYAMDYWGPGTSVTVSS
VL: DIVLTQSPASLAVSLGQRATISCKASQSVDYDGDSYMNWYQQKPGQPPKLLIYAASNLESGIPARFSGSGSGTDFTLNIHPVEEEDAATYYCQQSNEAPLTFGAGTKLELK
notes: also called 21F6C6-mHL
B2: 75E1F2 chimeric antibody (antibody, V domains shown)
VH: EVQLVESGGGSVKPGGSLKLSCAASGFTFSDYGMHWVRQAPEKGLEWITYISSGSSIIDYSDTVKGRFTISRDNAKDTLFLQMTSLRSEDTAIYYCVRREDHYAMDYWGQGTSVTVSS
VL: DIVMTQSHKFLSTSVGDRVSITCKASQDVYTAVAWFQQKPGQSPKLLFYSASYRFTGVPDRFNGSGSGTDFTLTITSMQAEDLAVYYCQQHYSTPWTFGGGTKLEIK
notes: Mouse variable regions combined with human IgG1 (N297A) constant regions
B3: 124B11F6 chimeric antibody (antibody, human IgG1, V domains shown)
VH: EVQLQQSGAELVRPGASVKLSCTASVFNIKDYYMHWVKQRTEQGLEWIGRIDPEDDKTKYAPKFQGKATITADTSSNTAYLHLSTLTSEDTAVYYCVRGWLGYIMDFWGQGTSVTVSS
VL: QLVLTQSSSASFSLGASAKLTCTLSSQHSTYTIDWYQQQPLKPPKYVMELKEDGSHSTGDGIPDRFSGSSSGADRYLGISNIQPEDEAVYICGVGATIKEQFVYVFGGGTKVTVL
notes: also called 124B11F6-mHL
B4: 174C11C9 chimeric antibody (antibody, human IgG1, V domains shown)
VH: EVQLQQSGPVLVKPGASVKMSCEASGYIFTDYYMNWVKQSPGKSLEWIGVFNPYSGGISYNQKFKGKATLTVDTSSSTAYMELNSLTSEDSAVYYCARDYYYLSSHGFYALDYWGQGTSVTVSS
VL: DIVLTQSPASLAVSLGQRATISCRASESVDSYGNSFIHWYQQRPGRPPKLLMYRASNLESGIPARFSGSGSRTDFTLTIDPVEADDVATYYCQQSNEDPLTFGAGTKLELK
notes: also called 174C11C9-mHL
B5: 255C12B10 chimeric antibody (antibody, V domains shown)
VH: EVQLQQSGPELVKPGASVKMSCKASGYTFTGYNMNWVKQSHGKSLEWIGYINPNNGGTRYNQKFKGKATLTINKSSSTAYMELRSLTSEDSAVYYCARDYGIDYWGQGTTLTVSS
VL: EIQMTQSPSSMSASLGDRITITCQATQDIVKNLNWYQQKPGKPPSFLIYYATELAEGVPSRFSGSGSGSDYSLTISNLESEDFADYYCLQFYEFPYTFGGGTKLEIK
notes: as for B2

Assays:
[1] = target: T1, Human Siglec-15, His Tag (human …); test: SPR Biacore, antibody captured by anti-human Fc on CM5, Siglec-15 protein as analyte
[2] = target: T1, Human Siglec-15, His Tag (human …); test: Octet BLI epitope binning, Siglec-15 His on HIS1K sensor; competitor 174C11C9
Experimental: (§1) Epitope binning assays were performed using the Octet RED96e (ForteBio) System for the antibodies tested. Human Siglec-15, His Tag (Cat. No. SG5-H52H3) (5 μg/mL) was captured by the HIS1K biosensor and bound to primary antibody (100 nM) for 180 s. Then, the Human Siglec-15, His Tag (antigen)-primary antibody was bound to secondary antibody (100 nM) on the biosensors for 90 s. Data analysis was performed using Octet RED96e (ForteBio) analysis software.

[3] = target: T1, Human Siglec-15, His Tag (human …); test: Octet BLI epitope binning, Siglec-15 His on HIS1K sensor; competitor 124B11F6
Experimental: as §1

[4] = target: T1, Human Siglec-15, His Tag (human …); test: ELISA, coated antigen
Experimental: (§2) The variable regions from the antibodies produced by the hybridomas were combined with human IgG1 (N297A) constant regions to generate chimeric antibodies, named as 21F6C6, 75E1F2, 124B11F6, 174C11C9, and 255C12B10, respectively. Binding activity assays were performed on the chimeric antibodies using Siglec-15 proteins from different species, in which human, mouse and Cynomolgus Monkey Siglec-15 proteins were purchased from ACROBiosystems (Beijing, China). Antigen was coated at 0.5 μg/ml, and antibodies were diluted starting from 1 μg/ml and incubated with antigen. Horseradish peroxidase-labeled Anti-Human IgG antibody was used as the secondary antibody and OD₄₅₀ values were read after adding the substrate.

[5] = target: T2, Cynomolgus Monkey Siglec-15 full-length …; test: ELISA, coated antigen
Experimental: as §2

[6] = target: T1, Human Siglec-15, His Tag (human …); test: Octet BLI epitope binning, Siglec-15 His on HIS1K sensor; competitor 75E1F2
Experimental: as §1

[7] = target: T1, Human Siglec-15, His Tag (human …); test: SPR Biacore 8K, antibody captured by anti-human Fc, Siglec-15 His as analyte
Experimental: Affinity analysis was performed using Biacore8K, and a CM5 chip immobilized with anti-human Fc antibody was used to capture the antibodies tested. The stock solutions of the antibodies to be tested were diluted to 5 μg/mL, and injected sequentially into the experimental channels at a flow rate of 10 μL/min at about 500 RU. The analyte was Human Siglec-15, His Tag (Cat. #SG5-H52H3), the diluted human Siglec-15 protein was injected sequentially into the experimental channels and the control channel at a flow rate of 30 μL/min and allowing for a binding time of 150 s and a dissociation time of 700 s. The KD value of each antibody was calculated using Biacore 8K analysis software.

[8] = target: T1, Human Siglec-15, His Tag (human …); test: Octet BLI epitope binning, Siglec-15 His on HIS1K sensor; competitor 255C12B10
Experimental: as §1

[9] = target: T3, Human Siglec-15 overexpressed on …; test: flow cytometry on HEK293T-hu-S15 cells, detection with anti-human IgG (Fc specific)-FITC, average fluorescence intensity
Experimental: HEK293T cell line overexpressing Siglec-15 (HEK293T-hu-S15) was purchased from KYinno Biotechnology Co., Ltd (Beijing, China) under Catalog #KC-1314. Purified anti-Siglec-15 chimeric antibodies were diluted at a gradient of 100 nM and incubated with HEK293T-hu-S15 cells at 4° C. for 30 min. Flow cytometry was performed after addition of anti-human IgG (Fc specific)-FITC (cat. #F9512) and incubation for 30 min.

[10] = target: T1, Human Siglec-15, His Tag (human …); test: Octet BLI epitope binning, Siglec-15 His on HIS1K sensor; competitor 21F6C6
Experimental: as §1

[11] = target: T4, Mouse Siglec-15 full-length …; test: ELISA, coated antigen
Experimental: as §2

| Binder | Kd [1] | koff [1] | kon [1] | cross-competition score [2] | cross-competition score [3] | EC50 [4] | EC50 [5] | cross-competition score [6] | Kd [7] | koff [7] | kon [7] | cross-competition score [8] | EC50 [9] | cross-competition score [10] | EC50 [11] |
| --- | --- | --- | --- | --- | --- | --- | --- | --- | --- | --- | --- | --- | --- | --- | --- |
| B1 | 0.0684 nM | 0.000375 s⁻¹ | 5.49e+06 M⁻¹ s⁻¹ | 4.98% | 101% | 4.81 ng/mL | 6.61 ng/mL | 4.92% | 0.0473 nM | 0.000187 s⁻¹ | 3.95e+06 M⁻¹ s⁻¹ | 56.8% | 1.19 nM | – | – |
| B2 | – | – | – | 23% | 25.6% | 18.6 ng/mL | 12.2 ng/mL | – | 0.93 nM | 0.000782 s⁻¹ | 841000 M⁻¹ s⁻¹ | 69.2% | 1.88 nM | 23.3% | – |
| B3 | 0.0834 nM | 0.000114 s⁻¹ | 1.37e+06 M⁻¹ s⁻¹ | 79.5% | – | 21.6 ng/mL | 16 ng/mL | 22.7% | 0.00143 nM | 1.46e-07 s⁻¹ | 102000 M⁻¹ s⁻¹ | 44.9% | 9.44 nM | 108% | 21.2 ng/mL |
| B4 | 0.175 nM | 0.000305 s⁻¹ | 1.74e+06 M⁻¹ s⁻¹ | – | 73.4% | 5.22 ng/mL | 7.48 ng/mL | 4.2% | 0.305 nM | 0.00037 s⁻¹ | 1.21e+06 M⁻¹ s⁻¹ | 52.4% | 1.59 nM | 7.68% | 9.85 ng/mL |
| B5 | – | – | – | 18.3% | 18.9% | 5.62 ng/mL | 5.46 ng/mL | 11.4% | 0.536 nM | 0.000158 s⁻¹ | 296000 M⁻¹ s⁻¹ | – | 3.77 nM | 20.4% | 22.8 ng/mL |
